For this series, the system named is MS2 coat protein. Nature of the series: apparent KD of MS2 coat protein; designed switch direction (-1 OFF switch, 1 ON switch): -1; higher = weaker reporter binding. The procedure, abridged: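 An oligonucleotide input, 200 uM small-molecule ligand, or no input was present during titration of SNAP-549-labelled MS2 coat protein, which was doubled from 0.7 or 1.5 nM to 3 µM. Designed RNA switches had been transcribed on Illumina chips by stalled E. coli RNA polymerase. Apparent KD per design is the median over clusters of curves fitted to normalised cluster fluorescence.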

The mark [1] stands for this setting: input ligand: microRNA oligo, concentration not stated.
Setting [2] is: Eterna round: R95, input ligand: FMN 200 uM.
The mark [3] stands for this setting: Eterna round: R95, input ligand: microRNA oligo, concentration not stated.
The mark [4] stands for this setting: Eterna round: R95, input ligand: none.

“AGUGUGGGAGGAUAUACAUGAGGAUCACCCAUGUGAGUUGGCUCACAUGCUACGCUUCGUAGAAGGCCCAAAGA [Reragebion] (Eterna round: R96, puzzle: Exclusion 3)”: the “apparent KD of MS2 coat protein” value came to 0.554 µM (input ligand: FMN 200 uM), 0.0862 µM under setting [1] and 0.0913 µM (input ligand: none).
Consider “AUCGUGAAGAAGGAUAUGGGCCCGGUAAAACGACUAGAAGGUCUGACAUGAGGAUCACCCAUGUGAUACCAAAA [Veve] (puzzle: Exclusion 6)”, for which the “apparent KD of MS2 coat protein” value under setting [2] came out at 0.0341 µM, the “apparent KD of MS2 coat protein” value under setting [3] is 0.0429 µM and the “apparent KD of MS2 coat protein” value under setting [4] worked out at 0.0353 µM.
Take “CAGCAGAGAGGAUAUACUUGAGGAUCACCCAAGUGACACCGCCUGGUGCGAACUUGAAGUAGAAGGUUCGGCUA [Entema] (Eterna round: R97, puzzle: Exclusion 3)”: the “apparent KD of MS2 coat protein” value was found to be 0.0247 µM (input ligand: FMN 200 uM) and 0.0197 µM (input ligand: none).
For the sequence “UUUUAACAUGAGGAUCACCCAUGUGAGGAUAUCGAAAUUUAUAUUAAUAUUAUUUAAUCGAGAAGGCACAUUUU [JMF 44] (puzzle: Exclusion 1)”, the “apparent KD of MS2 coat protein” value under setting [3] was found to be 0.1 µM.
As for “GACCUCCCUGUAAGGAUAUCCAUGCAUCAAAGCAAGGAGAAGGUACAUGAGGAUCACCCAUGUCACCCGCGUUA (Eterna round: R97, puzzle: Brourd's mod of Exclusion 4)”, the “apparent KD of MS2 coat protein” value is, setting by setting: (input ligand: FMN 200 uM) 0.0231 µM; (input ligand: none) 0.0154 µM.
On to “AAGAAGAAACAAGCUUUUUGCACGUCAGGUAGUGACGCAACAUGAGGAUCACCCAUGUAUAGGGUGGGAAAGGAUAG [JR_SV3TOV2_Sub048] (puzzle: Sensor v3, turn-off variant 2)”, for which the “apparent KD of MS2 coat protein” value is 0.034 µM under setting [2], 0.0309 µM under setting [3] and 0.303 µM under setting [4].
Consider “AAAACUCGAGUUAGGAUAUUGAGUGCUAAAAUCACCAAGAAGGAACAUGAGGAUCACCCAUGUAACGAAGGUGA [BmEX4 A.10] (Eterna round: R97, puzzle: Brourd's mod of Exclusion 4)”, for which the “apparent KD of MS2 coat protein” value by setting is: (input ligand: FMN 200 uM) 0.0198 µM; (input ligand: none) 0.016 µM.
Consider “UAUUAACAAGCAAGAUCCCACAUGAGGAUCACCCAUGUGCUCGUCUUGUAAGGUACUGUGACGAAAGUCACGGUACC [Sensor 3, v1 - 84] (puzzle: Sensor v3, turn-off variant 1)”, for which the “apparent KD of MS2 coat protein” value turned out to be 0.0139 µM under setting [2], 0.041 µM under setting [3] and 0.0134 µM under setting [4].
For “UAGAUGGGAGGAUAUGCGUAGAUGCGGAUUCGUGUGGUGCUACAUGAGGAUCACCCAUGUAGAAGGCCCGUCUU [JL-ex2-2.26 Mayanne mod] (puzzle: Exclusion 2)”, the “apparent KD of MS2 coat protein” value under setting [3] worked out at 0.0135 µM.
Take “GGUUGGCGAGGAUAUACAUGAGGAUCACCCAUGUGAGAGAUAAAAGUGAGGAAGAAAAGUAGAAGGCGCUGACG [salish99_ex3_r3_012] (puzzle: Exclusion 3)”: the “apparent KD of MS2 coat protein” value under setting [2] stood at 0.155 µM, the “apparent KD of MS2 coat protein” value under setting [3] is 0.0295 µM and the “apparent KD of MS2 coat protein” value under setting [4] stood at 0.069 µM.
Consider “AAACAAGCAACGAGAUCCCACAUGAGGAUCACCCAUGUCAACUGAAGUUUUAAAUCUUCAGGCUCGUCUUAUAACAA [S_tov1_V1.1] (Eterna round: R97, puzzle: Sensor, turn-off variant 1)”, for which the “apparent KD of MS2 coat protein” value by setting is: (input ligand: FMN 200 uM) 0.0336 µM; (input ligand: none) 0.0348 µM.
As for “UUAAUUAAUUAAUUAUAAGAUCAACAUGAGGAUCACCCAUGUGAGGAUAUCAGCUCGUUUAGAGCUGAGAAGGCACAAAUAAUU [ExNG3/16-B2] (Eterna round: R96, puzzle: Exclusion NG 3)”, the “apparent KD of MS2 coat protein” value runs as follows: (input ligand: FMN 200 uM) 0.208 µM; under setting [1], 0.0457 µM; (input ligand: none) 0.0498 µM.
Taken in the same sequence, the figures for “ACAUGCCGCGCAGGAUAUGGGACACAUGAGGAUCACCCAUGUGGUUUCAUGUCUAACCAAGCGUCCCAGAAGGGCGUGAACAUG [Ex NG2 #29] (Eterna round: R96, puzzle: Exclusion NG 2)” were 0.0309 µM, 0.0161 µM and 0.0252 µM.
As to “CUUCGUAUAGAGGAUAUAGGAUACCUCGGUGUCCUAGAAGGCUGUACAUGAGGAUCACCCAUGUACUUCAGAUC [Exclusion 6 - B - 14:d] (puzzle: Exclusion 6)”, under setting [3], the “apparent KD of MS2 coat protein” value stood at 0.0126 µM.
In the case of “AAUGAUUGACGAGGAUAUUGUGGUAAAACACGACGAGAAGGCGUCUGUCACAUGAGGAUCACCCAUGUGAGCUUUGUGGAUAGA [Ex NG1 #72] (Eterna round: R96, puzzle: Exclusion NG 1)”, the “apparent KD of MS2 coat protein” value reads like this: (input ligand: FMN 200 uM) 0.0523 µM; under setting [1], 0.0336 µM; (input ligand: none) 0.0598 µM.
Taken in the same sequence, the figures for “AUUGUUUGAUACCUCUAAUACAUGAGGAUCACCCAUGUUAUCGAGGAUAUGUAGAAGAGAGGAGAACAGAAGGCGAAGUAAGAG [JR_ExcNG3_Sub095] (Eterna round: R96, puzzle: Exclusion NG 3)” were 0.0146 µM, 0.0145 µM and 0.0177 µM.
With “UAUAUAUAGUAAGGAUAUGUAAAUAUUUUAUAAACAGAAGGUACUGACAUGAGGAUCACCCAUGUUUUAGUGUGGGCAUGUAGA [JMF's solution 28] (Eterna round: R96, puzzle: Exclusion NG 1)”, the “apparent KD of MS2 coat protein” value under setting [1] was determined as 0.0662 µM.
On to “GGAGGGAAAGUGAGGAUAUCCGGAGGGAAACCUCCGGAGAAGGCACAUGAGGAUCACCCAUGUAAGGAAGGAGG [AK-MS2ROC-r4-Bmoexclusion4-1.1] (Eterna round: R97, puzzle: Brourd's mod of Exclusion 4)”, for which the “apparent KD of MS2 coat protein” value is, setting by setting: (input ligand: FMN 200 uM) 0.203 µM; (input ligand: none) 0.135 µM.
Turning to “GAUUAUGCGAGCUUUAGGGACAUGAGGAUCACCCAUGUUCGUCUUAUUAGUCUAGGUACACUGACAUACCUAAAUCU [JMF 67] (puzzle: Sensor v3, turn-off variant 1)”, the “apparent KD of MS2 coat protein” value runs as follows: under setting [2], 0.0227 µM; under setting [3], 0.0331 µM; under setting [4], 0.0236 µM.
Taken in the same sequence, the figures for “UACUAUAAGGAGGAUAUCGUAUCGGAAACGAUACGAGAAGGCUUAACAUGAGGAUCACCCAUGUUCUUCAAUAU [Fiskers Ex 6 - 26] (puzzle: Exclusion 6)” were 0.016 µM, 0.0162 µM and 0.0146 µM.
Regarding “GGUGCGUAUGUGAGGAUAUGCUGGUCCUUGGAUCAGCAGAAGGCACAUGAGGAUCACCCAUGUGGUGUCGUCCC [salish99_Bmod_Ex4_021] (puzzle: Brourd's mod of Exclusion 4)”, the “apparent KD of MS2 coat protein” value under setting [3] stood at 0.241 µM.
On to “GAAAACGUAGGAUAUUAAUACUUAUACAUGAGGAUCACCCAUGUUUGGUGGGUCAAAGAAUGAGAAGGGCGAUGAA [EX5 #10] (Eterna round: R97, puzzle: Exclusion 5)”, for which the “apparent KD of MS2 coat protein” value (input ligand: FMN 200 uM) came to 0.261 µM and the “apparent KD of MS2 coat protein” value (input ligand: none) came out at 0.376 µM.
For “GGUUGGCGAGGAUAUACAUGAGGAUCACCCAUGUGAGAGAUACUAGUGAGGUCGAUUGGUAGAAGGCGCUGACG [JL-ex3-2.02 salish99 mod] (puzzle: Exclusion 3)”, the “apparent KD of MS2 coat protein” value by setting is: under setting [2], 0.0978 µM; under setting [3], 0.0955 µM; under setting [4], 0.135 µM.
Turning to “ACAUGUCAUUGAGGAUAUUGCACACAUGAGGAUCACCCAUGUAUACGGAUGCUCUUACGUGAGUUCGAGAAGGCGAUGUACAUU [Ex NG2 #89] (Eterna round: R96, puzzle: Exclusion NG 2)”, the “apparent KD of MS2 coat protein” value by setting is: (input ligand: FMN 200 uM) 0.29 µM; under setting [1], 0.121 µM; (input ligand: none) 0.16 µM.
On to “AGCGUGGAGACAGGAUAUGAGAAUAGAUAGAAAUCAGAAGGGUCACAUGAGGAUCACCCAUGUAAAGUCUUGAGGAUGAGUGAU [Prohibition 3 - Jieux - Exclusion NG 1] (Eterna round: R96, puzzle: Exclusion NG 1)”, for which the “apparent KD of MS2 coat protein” value under setting [1] came out at 0.0704 µM.
As to “CCCUCACAUGAGGAUCACCCAUGUCAGGAUAUUCGAGGCGCAAAUGCGCCAAAUGCAGGAAGAAGGGACGUGCC [Isqubemaor] (puzzle: Exclusion 1)”, the “apparent KD of MS2 coat protein” value under setting [3] amounted to 0.014 µM.
As for “GGUCCACAUGAGGAUCACCCAUGUUAGGAUAUCUCGCCCGAGUCGUUAUGGGCCGGGCAGAGAAGGAAUGUGAA [Redion] (puzzle: Exclusion 1)”, the “apparent KD of MS2 coat protein” value under setting [3] was 0.0179 µM.
Consider “CUGUUCCGUGUAGGAUAUGCAUAUUCCCAUUAUGCAGAAGGACAUGAGGAUCACCCAUGUAUGUUAUUAUCAUGUGUUACAUGC [Design 8] (Eterna round: R96, puzzle: Exclusion NG 1)”, for which the “apparent KD of MS2 coat protein” value is, setting by setting: (input ligand: FMN 200 uM) 0.635 µM; under setting [1], 0.0313 µM; (input ligand: none) 0.0364 µM.
Regarding “GCACGGAUGGUAGGAUAUCUGUGCGAUUAGCUCAGAGAAGGACCACAUGAGGAUCACCCAUGUACCUCAAUUAGCUUUCCGUGC [Eli exng1 - 020] (Eterna round: R96, puzzle: Exclusion NG 1)”, the “apparent KD of MS2 coat protein” value by setting is: (input ligand: FMN 200 uM) 0.0407 µM; under setting [1], 0.011 µM; (input ligand: none) 0.0152 µM.
“ACGAUUGUAGGAUAUACUUGGAGAGUGUUCACAUAUUAACGACAUGAGGAUCACCCAUGUAGAAGGGCAAUCGG [Eternabot (L1) Solution 22] (Eterna round: R97, puzzle: Exclusion 2)”: the “apparent KD of MS2 coat protein” value stood at 0.174 µM (input ligand: FMN 200 uM) and 0.421 µM (input ligand: none).
Taken in the same sequence, the figures for “UUGUUCUGAGGAUAUACAUGAGGAUCACCCAUGUGUUUCUGCUUGGAGACUAGCGAAUGUAGAAGGCUGUUCUC [salish99_ex3_r4_021] (Eterna round: R97, puzzle: Exclusion 3)” were 0.0152 µM and 0.0142 µM.
